{"source": "paper PMC2132682", "biological_target": "GST-NRX (cytoplasmic domain of Neurexin) (Drosophila) (UniProt Q94887)", "sequence (Q94887 1239-1284)": "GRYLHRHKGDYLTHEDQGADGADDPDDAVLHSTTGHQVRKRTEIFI", "assay": "pull-down"}
{"substance": "32P-labeled Coracle (cDNA3 isoform, recombinant) (natural protein)", "values": [{"measurement": "% relative binding", "value": 100, "unit": "%"}]}
{"substance": "unlabeled Coracle (cDNA3 isoform, recombinant) (natural protein)", "values": [{"measurement": "% relative binding of 32P-COR to NRX with the competitor", "value": 36.6, "unit": "%"}]}
